These results are taken from US9932621B2, “Modulators for Sirt5 and assays for screening same” (CORNELL UNIVERSITY, priority 2010, dated 2018).

Experiment [1] addresses T1, Sirt5 (Homo sapiens, UniProt Q9NXA8).
T1 construct: made in house
T1 sequence (Q9NXA8 37-310): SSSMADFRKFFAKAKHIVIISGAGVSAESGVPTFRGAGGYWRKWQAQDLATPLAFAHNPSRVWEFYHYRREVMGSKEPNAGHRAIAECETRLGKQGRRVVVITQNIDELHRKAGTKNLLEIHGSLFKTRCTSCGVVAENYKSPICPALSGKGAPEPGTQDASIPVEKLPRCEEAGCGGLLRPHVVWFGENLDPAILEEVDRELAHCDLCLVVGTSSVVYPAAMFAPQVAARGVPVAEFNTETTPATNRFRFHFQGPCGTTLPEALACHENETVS
The experiment is described as follows: Sirt5 inhibition IC50 (desuccinylase, HPLC-based assay). As to conditions: Sirt5 1 μM, 0.3 mM acyl peptide, 0.5 mM NAD; * = no inhibition at 100 μM. It is filed as biochemical. Here is the method:
All assays were carried out under identical enzyme (1 μM) and substrate (0.3 mM acyl peptide, 0.5 mM NAD) concentrations.

For another experiment, the target named is T2, Sirt1 (Homo sapiens, UniProt Q96EB6).
T2 sequence (Q96EB6 1-747): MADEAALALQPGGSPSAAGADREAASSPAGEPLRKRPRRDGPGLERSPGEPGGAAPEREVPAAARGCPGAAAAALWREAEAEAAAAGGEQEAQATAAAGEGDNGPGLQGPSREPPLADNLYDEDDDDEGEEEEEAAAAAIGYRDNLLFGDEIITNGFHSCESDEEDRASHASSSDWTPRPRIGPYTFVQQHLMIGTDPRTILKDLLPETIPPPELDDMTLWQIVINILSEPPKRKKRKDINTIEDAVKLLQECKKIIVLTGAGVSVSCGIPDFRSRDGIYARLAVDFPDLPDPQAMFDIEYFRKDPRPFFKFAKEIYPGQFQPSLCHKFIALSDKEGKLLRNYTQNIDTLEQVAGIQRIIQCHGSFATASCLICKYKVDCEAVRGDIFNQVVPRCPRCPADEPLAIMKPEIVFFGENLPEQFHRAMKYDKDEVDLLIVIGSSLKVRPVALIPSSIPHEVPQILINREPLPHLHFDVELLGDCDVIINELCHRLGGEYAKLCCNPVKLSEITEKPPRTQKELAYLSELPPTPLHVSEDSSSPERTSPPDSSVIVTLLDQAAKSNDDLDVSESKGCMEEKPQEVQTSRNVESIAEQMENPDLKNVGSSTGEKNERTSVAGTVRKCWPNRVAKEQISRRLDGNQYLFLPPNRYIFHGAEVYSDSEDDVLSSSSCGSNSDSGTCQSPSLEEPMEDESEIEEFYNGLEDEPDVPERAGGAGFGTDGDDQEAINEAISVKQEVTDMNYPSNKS
As to conditions: Sirt1, literature value; read-out: IC50, reported value in parentheses; cited from earlier work.

In the next experiment the target is T3, Sirt5 R105M (Homo sapiens, UniProt Q9NXA8, R105M).
T3 sequence (Q9NXA8 37-310 R105M): T1 sequence (Q9NXA8 37-310) with R69M
Put plainly: Deacylation kinetics by HPLC, mutant Sirt5 R105M. Format: biochemical. As to conditions: read-out: Km for peptide. Here is the method:
For determination of kcat and Km, human Sirt1, Sirt2, Sirt3 and Sirt5 were measured by detecting the deacylated peptide from H3K9 acyl peptides using HPLC. […] The reactions were stopped with 100 mM HCl and 160 mM acetic acid, analyzed by HPLC with a reverse phase C18 column (250×4.6 mm, 90 A, 10 μm, GraceVydac, Southborough, Mass.), with a linear gradient of 0% to 20% B for 10 min (1 mL/min). […] The kcat and Km values were obtained by curve-fitting the Vinitial/[E] versus [S] plot using KaleidaGraph. […] The experiments were done in duplicate.

The target of the next experiment is T4, Sirt5 H158Y (Homo sapiens, UniProt Q9NXA8, H158Y).
T4 sequence (Q9NXA8 37-310 H158Y): T1 sequence (Q9NXA8 37-310) with H122Y
The experiment is described as follows: Deacylation kinetics by HPLC, mutant Sirt5 H158Y. It is filed as biochemical. Particulars: read-out: Km for peptide. Here is the method:
(§1) For determination of kcat and Km, human Sirt1, Sirt2, Sirt3 and Sirt5 were measured by detecting the deacylated peptide from H3K9 acyl peptides using HPLC. Purified Sirtuin was incubated with 1.0 mM of NAD in 20 mM Tris-HCl buffer (pH 7.5) containing acyl peptides (0-750 μM) and 1 mM DTT in 60 μL reactions at 37° C. The reactions were stopped with 100 mM HCl and 160 mM acetic acid, analyzed by HPLC with a reverse phase C18 column (250×4.6 mm, 90 A, 10 μm, GraceVydac, Southborough, Mass.), with a linear gradient of 0% to 20% B for 10 min (1 mL/min). […] The kcat and Km values were obtained by curve-fitting the Vinitial/[E] versus [S] plot using KaleidaGraph. For Sirt5 R105M, the observed second order rate constant, kobs (rate/([Sirtuin][NAD])) was detected instead of kcat and Km because of the very weak deacylation activity. The experiments were done in duplicate.

Experiment [2] deals with T1, Sirt5. Put plainly: Deacylation kinetics (kcat, Km) by HPLC, Sirt5. Format: biochemical. As to conditions: wild-type Sirt5, Table 3. Here is the method:
as §1

A further experiment deals with T5, Sirt5 Y102F (Homo sapiens, UniProt Q9NXA8, Y102F).
T5 sequence (Q9NXA8 37-310 Y102F): T1 sequence (Q9NXA8 37-310) with Y66F
The experiment is described as follows: Deacylation kinetics by HPLC, mutant Sirt5 Y102F. Format: biochemical. Particulars: read-out: Km for peptide. Here is the method: as §1

Residue numbers refer to the chain shown, from its start. *1 amine or outer side, *2 acyl side, *3 side chain or, on linkers, in order; H or OH if unused. Where no end group is shown, it is not given here. The star is where a group is joined. AMC = Cc1cc(=O)oc2cc(N*)ccc12; Suc = O=C(CCC(=O)[*:2])[*:1]

Consider `N#C/C(=C\c1ccc(-c2cc(Cl)ccc2Cl)o1)C(=O)Nc1cccc2ncccc12` [AGK2], for which the values for the IC50 against Sirt5 [1] and at Sirt1 were 120 µM and above 40 µM, respectively.

“H3K9 succinyl peptide: synthesized H3K9 succinyl lysine peptide, Sirt5 substrate (KQTARK(Suc)-{AMC})”: the Km in the experiment with Sirt5 R105M was above 750 µM; in the experiment with Sirt5 H158Y it was above 750 µM; with Sirt5 [2] (read-out: Km for peptide), 41 ± 11 µM; with Sirt5 Y102F, above 750 µM. Also, the catalytic constant (kcat) with Sirt5 [2] was found to be 0.029 ± 0.002 s⁻¹.

Usually IC50 stands for the concentration at which inhibition is half-maximal. A word on the Km: it is the concentration of substrate that gives half-maximal velocity. Broadly, the kcat is the number of substrate molecules converted per active site and unit of time at saturation.
